Measurements as given in the Human Domainome abundance scans (Beltran et al. 2025).
± gives the uncertainty stated by the source.

B1: POU domain, class 4, transcription factor 2, residues 256 to 327; numbered along this chain, Q12837 (parent)
chain: RDLEAFAERFKQRRIKLGVTQADVGSALANLKIPGVGSLSQSTICRFESLTLSHNNMIALKPILQAWLEEAE
B2: RAS guanyl-releasing protein 1, residues 539 to 593; numbered along this chain, O95267 (parent)
chain: GFPHNFQETTYLKPTFCDNCAGFLWGVIKQGYRCKDCGMNCHKQCKDLVVFECKK

Variants of: B1
Test: abundance fitness (aPCA) (normalised: wild type 0, dead -1); higher = more abundant; growth selection in yeast, the domain comes from the species named
Details: Homo sapiens

Variant	abundance fitness
R1T	-0.186 ± 0.14
R1W	-0.143 ± 0.12
R1P	-0.199 ± 0.33
R1A	0.078 ± 0.093
R1C	-0.445 ± 0.14
R1S	-0.235 ± 0.087
R1G	0.055 ± 0.078
R1E	0.368 ± 0.47
R1V	-0.107 ± 0.088
R1L	-0.354 ± 0.2
L3G	-0.947 ± 0.14
L3M	0.064 ± 0.089
L3D	-0.658 ± 0.29
L3E	-0.573 ± 0.091
L3I	0.072 ± 0.1
L3P	-0.558 ± 0.076
L3W	-0.283 ± 0.081
L3V	-0.153 ± 0.061
L3Q	-0.437 ± 0.078
L3H	-0.368 ± 0.11

Variant	abundance fitness
L3N	-0.382 ± 0.19
L3Y	-0.213 ± 0.11
L3R	-0.74 ± 0.1
L3T	-0.327 ± 0.096
E4A	-0.048 ± 0.057
D2F	-0.376 ± 0.2
D2W	-0.185 ± 0.32
D2A	-0.241 ± 0.074
D2M	-0.318 ± 0.2
D2S	-0.124 ± 0.053
D2R	-0.379 ± 0.06
D2Y	-0.171 ± 0.37
D2H	-0.497 ± 0.33
D2E	-0.102 ± 0.13
D2N	0.077 ± 0.14
D2C	-0.511 ± 0.32
D2L	-0.568 ± 0.084
D2G	-0.21 ± 0.054
D2P	-0.266 ± 0.069

Variants of: B2
Test: as above
Details: Homo sapiens

Variant	abundance fitness
G22S	-0.066 ± 0.057
G22K	-0.278 ± 0.15
H4W	-1.04 ± 0.12
H4N	-0.708 ± 0.1
H4P	-0.915 ± 0.13
F6S	-0.252 ± 0.071
F6D	-0.788 ± 0.26
F6R	-0.574 ± 0.091
F6G	-0.627 ± 0.093
W25T	0.157 ± 0.1
D47V	-0.113 ± 0.083
D47I	-0.211 ± 0.1
P14K	-0.672 ± 0.17
P14H	-0.687 ± 0.12
K13Q	-0.247 ± 0.33
K13M	0.04 ± 0.1
K13W	-0.131 ± 0.086
R33V	-0.1 ± 0.046
R33F	-0.017 ± 0.06
F16V	-0.385 ± 0.064
K54H	-0.567 ± 0.27
K54I	-0.266 ± 0.12
G31C	-0.352 ± 0.08
G31D	-0.597 ± 0.12
G31R	-0.719 ± 0.1
G31L	-0.663 ± 0.066

Variant	abundance fitness
N5L	-0.026 ± 0.053
N5Y	-0.459 ± 0.21
N5E	-0.098 ± 0.12
N5F	-0.226 ± 0.19
N5G	-0.075 ± 0.054
K35W	-0.19 ± 0.095
V27G	-0.19 ± 0.046
V27Y	-0.018 ± 0.072
V27F	0.027 ± 0.11
V27K	-0.434 ± 0.091
G26Q	-0.462 ± 0.1
G26I	-0.946 ± 0.27
G26E	-0.517 ± 0.14
G26W	-0.269 ± 0.06
K29I	-0.252 ± 0.15
K29C	-0.171 ± 0.067
K29R	-0.103 ± 0.082
F2G	-0.335 ± 0.068
F2E	-0.343 ± 0.1
F2H	-0.048 ± 0.11
E52K	-0.057 ± 0.092
E52L	-0.168 ± 0.087
E52H	-0.053 ± 0.13
L12Y	-0.145 ± 0.12
L12I	-0.63 ± 0.23
L12T	-0.25 ± 0.093

Variant	abundance fitness
L12S	-0.123 ± 0.084
C41A	-0.016 ± 0.072
M39V	-0.111 ± 0.046
Y11R	-0.214 ± 0.055
Y11C	-0.151 ± 0.074
Y11E	-0.256 ± 0.12
Y11D	-0.832 ± 0.11
Y11T	-0.318 ± 0.15
Y11W	-0.17 ± 0.14
V49F	0.002 ± 0.065
F51H	-0.426 ± 0.31
F51W	-0.09 ± 0.094
F51Q	0.002 ± 0.091
F51N	0.256 ± 0.11
F51D	-0.043 ± 0.15
N40G	-0.08 ± 0.052
E8I	-0.063 ± 0.17
E8G	0.007 ± 0.074
A21I	0.04 ± 0.12
K55D	-0.528 ± 0.24
K55N	-0.138 ± 0.18
P3T	0.06 ± 0.087
C45P	-0.977 ± 0.22
K43R	-0.094 ± 0.083
T9W	-0.136 ± 0.1
T9P	-0.768 ± 0.22

Variant	abundance fitness
Q44H	0.083 ± 0.089
Q44E	0.131 ± 0.058
C20L	-0.974 ± 0.21
C20T	-1.05 ± 0.15
C20E	-0.931 ± 0.2
Y32R	-0.393 ± 0.095
Y32F	-0.312 ± 0.14
Y32S	-0.026 ± 0.084
Y32V	-0.007 ± 0.056
H42T	-0.921 ± 0.22
H42K	-0.849 ± 0.077
H42N	-0.815 ± 0.28
H42Q	-0.862 ± 0.33
K46M	0.208 ± 0.088
K46T	-0.069 ± 0.079
K46D	-0.541 ± 0.35
K46A	-0.09 ± 0.12
L48R	-0.136 ± 0.079
L48P	-0.15 ± 0.17
T10A	-0.408 ± 0.12
N19V	-0.02 ± 0.062
N19I	-0.163 ± 0.17
N19G	0.134 ± 0.051
Q30L	-0.765 ± 0.12
Q30Y	-0.693 ± 0.19
Q30V	-0.617 ± 0.1

Variant	abundance fitness
C17I	-0.869 ± 0.31
C17D	-0.986 ± 0.12
C17H	-0.784 ± 0.26
C17R	-0.851 ± 0.15
C53Y	-0.198 ± 0.16
C53F	-0.32 ± 0.16
C53W	-0.082 ± 0.074
C53L	0.021 ± 0.085
G38M	-0.095 ± 0.085
G38I	-0.453 ± 0.17
T15F	-0.434 ± 0.15
T15S	-0.181 ± 0.062
L24G	-0.48 ± 0.083
L24A	-0.396 ± 0.096
Q7V	-0.197 ± 0.061
Q7N	0.016 ± 0.12
Q7E	-0.073 ± 0.076
I28K	0.065 ± 0.11
I28V	-0.056 ± 0.044
D36H	-0.148 ± 0.29
D36W	-0.041 ± 0.068
D36G	0.118 ± 0.08
D36Q	-0.209 ± 0.11
G1R	-0.187 ± 0.14
